How the values were obtained:
[1] = test system: HeLa Kyoto; experiment: solubility in G1/S (NP-40 vs SDS abundance) (log2 ratio); higher = more soluble; conditions: cell cycle stage: G1/S
[2] = test system: HeLa Kyoto; experiment: melting temperature (median over replicates), in situ; higher = more thermally stable
[3] = test system: HeLa Kyoto; experiment: solubility change mitosis vs G1/S (difference of NP-40 vs SDS log2 ratios) (log2 ratio difference); higher = more soluble in mitosis
[4] = test system: HeLa Kyoto; experiment: thermal stability score vs G1/S (z-score of summed log2 fold changes over temperatures); higher = more thermally stable than in G1/S
[5] = cell cycle stage: early G1 (4.5 h after nocodazole release)
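Wherever melting temperature (median over replicates), in situ is given: HeLa Kyoto cells synchronized by double thymidine or nocodazole block, proteins quantified by TMT10plex mass spectrometry, three independent biological replicates.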
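Wherever solubility change mitosis vs G1/S (difference of NP-40 vs SDS log2 ratios) is given: synchronized HeLa Kyoto cells (double thymidine block for G1/S, nocodazole release for mitosis), protein amounts in NP-40 versus SDS lysates quantified by mass spectrometry, three biological replicates.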
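Wherever solubility in G1/S (NP-40 vs SDS abundance) is given: HeLa Kyoto cells arrested at G1/S by double thymidine block, proteins quantified by TMT10plex mass spectrometry in mild NP-40 versus SDS extracts, three biological replicates.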
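Wherever thermal stability score vs G1/S (z-score of summed log2 fold changes over temperatures) is given: synchronized HeLa Kyoto cells, proteins quantified by TMT10plex mass spectrometry, three biological replicates, mitosis taken 0.5 h after nocodazole release, G1/S directly after double thymidine block.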

Sequence	solubility in G1/S (log2) [1]	melting temperature ([2]; cell cycle stage: G1/S) [°C]	melting temperature ([2]; cell cycle stage: mitosis) [°C]	solubility change mitosis (log2) [3]	thermal stability score [4, 5]	thermal stability score ([4]; cell cycle stage: mitosis)
MSERCCSRYSSGASIGCTPTSTQAKMVSKRIAQETFDAAVRENIEEFAMGPEEAVKEAVEQFESQGVDLSNIVKTAPKVSADGSQEPTHDILQMLSDLQESVASSRPQEVSAYLTRFCDQCKQDKACRFLAAQKGAYPIIFTAWKLATAGDQGLLLQSLNALSVLTDGQPDLLDAQGLQLLVATLTQNADEADLTCSGIRCVRHACLKHEQNRQDLVKAGVLPLLTGAITHHGHHTDVVREACWALRVMTFDDDIRVPFGHAHNHAKMIVQENKGLKVLIEATKAFLDNPGILSELCGTLSRLAIRNEFCQEVVDLGGLSILVSLLADCNDHQMRDQSGVQELVKQVLSTLRAIAGNDDVKDAIVRAGGTESIVAAMTQHLTSPQVCEQSCAALCFLALRKPDNSRIIVEGGGAVAALQAMKAHPQKAGVQKQACMLIRNLVAHGQAFSKPILDLGAEALIMQARSAHRDCEDVAKAALRDLGCHVELRELWTGQRGNLAP [ARMC6]	0.319	46.8	47	-0.0993	0.787	2.44
MSERKVLNKYYPPDFDPSKIPKLKLPKDRQYVVRLMAPFNMRCKTCGEYIYKGKKFNARKETVQNEVYLGLPIFRFYIKCTRCLAEITFKTDPENTDYTMEHGATRNFQAEKLLEEEEKRVQKEREDEELNNPMKVLENRTKDSKLEMEVLENLQELKDLNQRQAHVDFEAMLRQHRLSEEERRRQQQEEDEQETAALLEEARKRRLLEDSDSEDEAAPSPLQPALRPNPTAILDEAPKPKRKVEVWEQSVGSLGSRPPLSRLVVVKKAKADPDCSNGQPQAAPTPGAPQNRKEANPTPLTPGASSLSQLGAYLDSDDSNGSN [CCDC94]	0.299	51.6	52.3	-0.0138	0.296	0.409
MSFFNFRKIFKLGSEKKKKQYEHVKRDLNPEDFWEIIGELGDGAFGKVYKAQNKETSVLAAAKVIDTKSEEELEDYMVEIDILASCDHPNIVKLLDAFYYENNLWILIEFCAGGAVDAVMLELERPLTESQIQVVCKQTLDALNYLHDNKIIHRDLKAGNILFTLDGDIKLADFGVSAKNTRTIQRRDSFIGTPYWMAPEVVMCETSKDRPYDYKADVWSLGITLIEMAEIEPPHHELNPMRVLLKIAKSEPPTLAQPSRWSSNFKDFLKKCLEKNVDARWTTSQLLQHPFVTVDSNKPIRELIAEAKAEVTEEVEDGKEEDEEEETENSLPIPASKRASSDLSIASSEEDKLSQNACILESVSEKTERSNSEDKLNSKILNEKPTTDEPEKAVEDINEHITDAQLEAMTELHDRTAVIKENEREKRPKLENLPDTEDQETVDINSVSEGKENNIMITLETNIEHNLKSEEEKDQEKQQMFENKLIKSEEIKDTILQTVDLVSQETGEKEANIQAVDSEVGLTKEDTQEKLGEDDKTQKDVISNTSDVIGTCEAADVAQKVDEDSAEDTQSNDGKEVVEVGQKLINKPMVGPEAGGTKEVPIKEIVEMNEIEEGKNKEQAINSSENIMDINEEPGTTEGEEITESSSTEEMEVRSVVADTDQKALGSEVQDASKVTTQIDKEKKEIPVSIKKEPEVTVVSQPTEPQPVLIPSININSDSGENKEEIGSLSKTETILPPESENPKENDNDSGTGSTADTSSIDLNLSISSFLSKTKDSGSISLQETRRQKKTLKKTRKFIVDGVEVSVTTSKIVTDSDSKTEELRFLRRQELRELRFLQKEEQRAQQQLNSKLQQQREQIFRRFEQEMMSKKRQYDQEIENLEKQQKQTIERLEQEHTNRLRDEAKRIKGEQEKELSKFQNMLKNRKKEVINEVEKAPKELRKELMKRRKEELAQSQHAQEQEFVQKQQQELDGSLKKIIQQQKAELANIERECLNNKQQLMRAREAAIWELEERHLQEKHQLLKQQLKDQYFMQRHQLLKRHEKETEQMQRYNQRLIEELKNRQTQERARLPKIQRSEAKTRMAMFKKSLRINSTATPDQDRDKIKQFAAQEEKRQKNERMAQHQKHENQMRDLQLQCEANVRELHQLQNEKCHLLVEHETQKLKELDEEHSQELKEWREKLRPRKKTLEEEFARKLQEQEVFFKMTGESECLNPSTQSRISKFYPIPSLHSTGS	0.0156	50.2	49.9	-0.139	-0.208	0.991
MSFICGLQSAARNHVFFRFNSLSNWRKCNTLASTSRGCHQVQVNHIVNKYQGLGVNQCDRWSFLPGNFHFYSTFNNKRTGGLSSTKSKEIWRITSKCTVWNDAFSRQLLIKEVTAVPSLSVLHPLSPASIRAIRNFHTSPRFQAAPVPLLLMILKPVQKLFAIIVGRGIRKWWQALPPNKKEVVKENIRKNKWKLFLGLSSFGLLFVVFYFTHLEVSPITGRSKLLLLGKEQFRLLSELEYEAWMEEFKNDMLTEKDARYLAVKEVLCHLIECNKDVPGISQINWVIHVVDSPIINAFVLPNGQMFVFTGFLNSVTDIHQLSFLLGHEIAHAVLGHAAEKAGMVHLLDFLGMIFLTMIWAICPRDSLALLCQWIQSKLQEYMFNRPYSRKLEAEADKIGLLLAAKACADIRASSVFWQQMEFVDSLHGQPKMPEWLSTHPSHGNRVEYLDRLIPQALKIREMCNCPPLSNPDPRLLFKLSTKHFLEESEKEDLNITKKQKMDTLPIQKQEQIPLTYIVEKRTGS [OMA1]	-0.436	54.1	54.7	-0.0922	-1.79	-1.54
MSFLLPKLTSKKEVDQAIKSTAEKVLVLRFGRDEDPVCLQLDDILSKTSSDLSKMAAIYLVDVDQTAVYTQYFDISYIPSTVFFFNGQHMKVDYGSPDHTKFVGSFKTKQDFIDLIEVIYRGAMRGKLIVQSPIDPKNIPKYDLLYQDI [TXNL4B]	0.0975	51	51.8	0.00266	0.0365	1.15
MSFLQDPSFFTMGMWSIGAGALGAAALALLLANTDVFLSKPQKAALEYLEDIDLKTLEKEPRTFKAKELWEKNGAVIMAVRRPGCFLCREEAADLSSLKSMLDQLGVPLYAVVKEHIRTEVKDFQPYFKGEIFLDEKKKFYGPQRRKMMFMGFIRLGVWYNFFRAWNGGFSGNLEGEGFILGGVFVVGSGKQGILLEHREKEFGDKVNLLSVLEAAKMIKPQTLASEKK [FAM213A]	-0.0704	56.6	55.5	-0.0729	-0.538	-0.108
MSFSRALLWARLPAGRQAGHRAAICSALRPHFGPFPGVLGQVSVLATASSSASGGSKIPNTSLFVPLTVKPQGPSADGDVGAELTRPLDKNEVKKVLDKFYKRKEIQKLGADYGLDARLFHQAFISFRNYIMQSHSLDVDIHIVLNDICFGAAHADDLFPFFLRHAKQIFPVLDCKDDLRKISDLRIPPNWYPDARAMQRKIIFHSGPTNSGKTYHAIQKYFSAKSGVYCGPLKLLAHEIFEKSNAAGVPCDLVTGEERVTVQPNGKQASHVSCTVEMCSVTTPYEVAVIDEIQMIRDPARGWAWTRALLGLCAEEVHLCGEPAAIDLVMELMYTTGEEVEVRDYKRLTPISVLDHALESLDNLRPGDCIVCFSKNDIYSVSRQIEIRGLESAVIYGSLPPGTKLAQAKKFNDPNDPCKILVATDAIGMGLNLSIRRIIFYSLIKPSINEKGERELEPITTSQALQIAGRAGRFSSRFKEGEVTTMNHEDLSLLKEILKRPVDPIRAAGLHPTAEQIEMFAYHLPDATLSNLIDIFVDFSQVDGQYFVCNMDDFKFSAELIQHIPLSLRVRYVFCTAPINKKQPFVCSSLLQFARQYSRNEPLTFAWLRRYIKWPLLPPKNIKDLMDLEAVHDVLDLYLWLSYRFMDMFPDASLIRDLQKELDGIIQDGVHNITKLIKMSETHKLLNLEGFPSGSQSRLSGTLKSQARRTRGTKALGSKATEPPSPDAGELSLASRLVQQGLLTPDMLKQLEKEWMTQQTEHNKEKTESGTHPKGTRRKKKEPDSD [SUPV3L1]	-0.0284	51.4	51.5	-0.0848	0.374	0.138
MSGCDAREGDCCSRRCGAQDKEHPRYLIPELCKQFYHLGWVTGTGGGISLKHGDEIYIAPSGVQKERIQPEDMFVCDINEKDISGPSPSKKLKKSQCTPLFMNAYTMRGAGAVIHTHSKAAVMATLLFPGREFKITHQEMIKGIKKCTSGGYYRYDDMLVVPIIENTPEEKDLKDRMAHAMNEYPDSCAVLVRRHGVYVWGETWEKAKTMCECYDYLFDIAVSMKKVGLDPSQLPVGENGIV [APIP]	0.253	59.3	57.6	-0.078	-1.32	-2.26
MSGCRVFIGRLNPAAREKDVERFFKGYGRIRDIDLKRGFGFVEFEDPRDADDAVYELDGKELCSERVTIEHARARSRGGRGRGRYSDRFSSRRPRNDRRNAPPVRTENRLIVENLSSRVSWQDLKDFMRQAGEVTFADAHRPKLNEGVVEFASYGDLKNAIEKLSGKEINGRKIKLIEGSKRHSRSRSRSRSRTRSSSRSRSRSRSRSRKSYSRSRSRSRSRSRSKSRSVSRSPVPEKSQKRGSSSRSKSPASVDRQRSRSRSRSRSVDSGN [SRSF5]	-0.33	51.3	51.5	0.302	1.65	-4.18
MSGDGATEQAAEYVPEKVKKAEKKLEENPYDLDAWSILIREAQNQPIDKARKTYERLVAQFPSSGRFWKLYIEAEIKAKNYDKVEKLFQRCLMKVLHIDLWKCYLSYVRETKGKLPSYKEKMAQAYDFALDKIGMEIMSYQIWVDYINFLKGVEAVGSYAENQRITAVRRVYQRGCVNPMINIEQLWRDYNKYEEGINIHLAKKMIEDRSRDYMNARRVAKEYETVMKGLDRNAPSVPPQNTPQEAQQVDMWKKYIQWEKSNPLRTEDQTLITKRVMFAYEQCLLVLGHHPDIWYEAAQYLEQSSKLLAEKGDMNNAKLFSDEAANIYERAISTLLKKNMLLYFAYADYEESRMKYEKVHSIYNRLLAIEDIDPTLVYIQYMKFARRAEGIKSGRMIFKKAREDTRTRHHVYVTAALMEYYCSKDKSVAFKIFELGLKKYGDIPEYVLAYIDYLSHLNEDNNTRVLFERVLTSGSLPPEKSGEIWARFLAFESNIGDLASILKVEKRRFTAFKEEYEGKETALLVDRYKFMDLYPCSASELKALGYKDVSRAKLAAIIPDPVVAPSIVPVLKDEVDRKPEYPKPDTQQMIPFQPRHLAPPGLHPVPGGVFPVPPAAVVLMKLLPPPICFQGPFVQVDELMEIFRRCKIPNTVEEAVRIITGGAPELAVEGNGPVESNAVLTKAVKRPNEDSDEDEEKGAVVPPVHDIYRARQQKRIR [CSTF3]	-0.0695	52	51.9	-0.000668	0.26	-0.413
MSGDSSGRGPEGRGRGRDPHRDRTRSRSRSRSPLSPRSRRGSARERREAPERPSLEDTEPSDSGDEMMDPASLEAEADQGLCRQIRHQYRALINSVQQNREDILNAGDKLTEVLEEANTLFNEVSRAREAVLDAHFLVLASDLGKEKAKQLRSDLSSFDMLRYVETLLTHMGVNPLEAEELIRDEDSPDFEFIVYDSWKITGRTAENTFNKTHTFHFLLGSIYGECPVPKPRVDRPRKVPVIQEERAMPAQLRRMEESHQEATEKEVERILGLLQTYFREDPDTPMSFFDFVVDPHSFPRTVENIFHVSFIIRDGFARIRLDQDRLPVIEPVSINEENEGFEHNTQVRNQGIIALSYRDWEEIVKTFEISEPVITPSQRQQKPSA [NSMCE4A]	0.182	49.9	50.2	0.00196	-2.46	-1.49
MSGELPPNINIKEPRWDQSTFIGRANHFFTVTDPRNILLTNEQLESARKIVHDYRQGIVPPGLTENELWRAKYIYDSAFHPDTGEKMILIGRMSAQVPMNMTITGCMMTFYRTTPAVLFWQWINQSFNAVVNYTNRSGDAPLTVNELGTAYVSATTGAVATALGLNALTKHVSPLIGRFVPFAAVAAANCINIPLMRQRELKVGIPVTDENGNRLGESANAAKQAITQVVVSRILMAAPGMAIPPFIMNTLEKKAFLKRFPWMSAPIQVGLVGFCLVFATPLCCALFPQKSSMSVTSLEAELQAKIQESHPELRRVYFNKGL [SFXN1]	0.371	54.4	54.8	-0.0506	-0.303	-0.959
MSGEPGQTSVAPPPEEVEPGSGVRIVVEYCEPCGFEATYLELASAVKEQYPGIEIESRLGGTGAFEIEINGQLVFSKLENGGFPYEKDLIEAIRRASNGETLEKITNSRPPCVIL [MIEN1]	0.353	50.8	51.1	-0.0195	-1.21	0.00566

From the supplement of paper PMC5998384
